Blank lines part the entries; values can stand above or below the molecule they belong to.
Columns and labels:
[1] = target: Purified SAS-5 C-terminus (C. elegans) (UniProt Q20010); assay: SEC-MALS
SEC = target: the molecule itself; assay: SEC
[2] = target: T1, Full-length SAS-5, purified, on beads (C. elegans, UniProt Q20010 1-404); assay: pull-down
T1 sequence (looked up): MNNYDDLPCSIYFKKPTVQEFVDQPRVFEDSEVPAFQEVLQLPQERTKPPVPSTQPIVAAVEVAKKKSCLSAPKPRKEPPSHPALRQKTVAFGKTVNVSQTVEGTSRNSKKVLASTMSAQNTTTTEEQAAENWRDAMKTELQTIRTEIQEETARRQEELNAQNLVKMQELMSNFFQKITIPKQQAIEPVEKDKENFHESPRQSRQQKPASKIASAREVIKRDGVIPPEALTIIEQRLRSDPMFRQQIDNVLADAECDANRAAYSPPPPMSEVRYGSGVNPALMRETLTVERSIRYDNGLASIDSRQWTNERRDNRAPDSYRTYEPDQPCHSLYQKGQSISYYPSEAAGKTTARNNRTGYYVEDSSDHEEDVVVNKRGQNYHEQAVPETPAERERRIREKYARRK

stoichiometry N [1]: 2
Molecule: Purified SAS-5 C-terminus (from UniProt Q20010 1-404) (domain or fragment)

B1: WT SAS-6^1-389, purified (domain or fragment, C. elegans, UniProt O62479 1-389, looked up)
chain: MTSKIALFDQTLIASLLQPLSLNQPDFKAYKTKVKLKISEQRNETSGEKELKFEISRSDDFEFLFSETLNNEKYQILARDHDLTVDFDAFPKVIIQHLLCKNIVKNLEEDGEVDARKKAGYHSIADPGKPTEINIILDAEKNFCSFELFSKTPISKGKIFSIKLHAVRGDHLISHLLKICSSQAVKLSTFYKSADELASLRQKCGDLEKQVEKLSGVKEEFEEMSEKFKELEDEVELVKEERENIRLLVEDKEDEVADLKQDTESLQKQLEENQEELEIVGNMLREEQGKVDQLQKRNVAHQKEIGKLRAELGTAQRNLEKADQLLKRNSQQQNQQSLDMRKLGELEADLKEKDSMVESLTETIGILRKELENEKLKAAENMDSFEKLS
binding result (SEC): binds

stoichiometry N [2]: 2 SAS-6:SAS-5
B2: Full-length WT SAS-6, purified (natural protein, C. elegans, UniProt O62479 1-492, looked up)
chain: MTSKIALFDQTLIASLLQPLSLNQPDFKAYKTKVKLKISEQRNETSGEKELKFEISRSDDFEFLFSETLNNEKYQILARDHDLTVDFDAFPKVIIQHLLCKNIVKNLEEDGEVDARKKAGYHSIADPGKPTEINIILDAEKNFCSFELFSKTPISKGKIFSIKLHAVRGDHLISHLLKICSSQAVKLSTFYKSADELASLRQKCGDLEKQVEKLSGVKEEFEEMSEKFKELEDEVELVKEERENIRLLVEDKEDEVADLKQDTESLQKQLEENQEELEIVGNMLREEQGKVDQLQKRNVAHQKEIGKLRAELGTAQRNLEKADQLLKRNSQQQNQQSLDMRKLGELEADLKEKDSMVESLTETIGILRKELENEKLKAAENMDSFEKLSMENENLKEKIAHYRAQRFSPAPSGLPGLQTGLTNRLTPSFKPVLGPHTPYGANLNSRTPFRDNTTLNFQNSTIATPHAFRFNSQLIADETTGSSVTNTPPAQR

Reference: paper PMC3655416 (Developmental cell, 2013)
